# Where a chain is given by its changes, count along the chain named.
# T1: CTLA-4-hFc (immunogen A; hFc-labeled CTLA-4 extracellular domain protein) (human, UniProt P16410 36-161)
# T1 construct: range 36-161; Made in HEK293 cells, purified on protein A; also called CLTA-4-hFc; CTLA-4 protein; not shown: human IgG Fc fragment (hFc) of the pCpC vector
# T1 sequence (looked up): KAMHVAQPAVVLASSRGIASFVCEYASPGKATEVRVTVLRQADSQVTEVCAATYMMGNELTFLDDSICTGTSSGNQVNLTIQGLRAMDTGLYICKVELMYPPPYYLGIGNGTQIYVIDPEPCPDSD
# T2: human CTLA-4 (Y201V), full length, on transfected cells (human, UniProt P16410 36-223)
# T2 construct: whole, on cells; also called hCTLA-4; HEK293-hCTLA-4 (Y201V)
# T2 sequence (looked up): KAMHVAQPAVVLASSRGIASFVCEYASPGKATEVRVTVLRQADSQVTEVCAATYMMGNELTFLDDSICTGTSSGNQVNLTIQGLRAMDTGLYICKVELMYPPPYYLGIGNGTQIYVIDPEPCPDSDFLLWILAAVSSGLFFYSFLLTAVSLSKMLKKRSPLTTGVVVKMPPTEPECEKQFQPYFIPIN
# T3: CTLA-4 on human T lymphocytes (PBMC, CD3+ T cells) (human, UniProt P16410 36-223)
# T3 sequence (looked up): T2 sequence (looked up) with V166Y
# B1: 92C8B6 (chimeric antibody purified from hybridoma supernatant) (antibody, V domains shown)
# VH: QVQLVESGGGVVQPGRSLRLSCAASGFTFSNFGMHWVRQAPGKGLEWVAVIWYDGSNKYYADSVKGRFTISRDNSKNTLFLQMNGLRAEDTAVYYCAKGGILMAGTLDYWGQGTLVTVSS
# VL: DIQMTQSPSSLSASVGDRVTITCRASQSVSTYLNWYQQKPGKAPKLLIYAASSFQSGVPSRFSGSGSGTDFTLTISSLQPEDFATYFCQQSYSTPFTFGPGTKVDIK
# notes: also called mAb42; mAb042
# B2: 97A8D1 (chimeric antibody purified from hybridoma supernatant) (antibody, V domains shown)
# VH: QVQLVESGGGVVQPGRSLRLSCVASGFTFNNYGMNWVRQAPGKGLEWVAVIWYGGRNKFYADSVKGRFTISRDNSKNTLYLEMNSLRAEDTAVYYCARADWGGWFDPWGQGTLVTVSS
# VL: EIVLTQSPGTLSLSPGERATLSCRASQSVSSTYLAWYQQKPGQAPRLLIHGAFSRATGIPDRFSGSGSGPDFTLTISRLEPEDFAVYYCQQYGTSPFTFGPGTKVDIK
# notes: also called mAb49; mAb049
# B3: 97B8E1 (chimeric antibody purified from hybridoma supernatant) (antibody, V domains shown)
# VH: QVQLVESGGGVVQPGRSLRLSCAASGFTFSSYVMHWVRQAPGKGLEWVAVIWSDGRNKYYTDSVKGRFTISRDNSKNTLYLQMSSLRAEDTAVYYCARSGIALAGNAFDIWGQGTMVTVSS
# VL: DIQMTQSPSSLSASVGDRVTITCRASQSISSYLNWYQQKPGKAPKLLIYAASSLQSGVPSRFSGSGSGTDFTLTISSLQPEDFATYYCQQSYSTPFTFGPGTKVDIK
# notes: also called mAb50; mAb050
# Target: T1, CTLA-4-hFc (immunogen A; hFc-labeled …)
# Assay: ELISA, coated CTLA-4-hFc, competitor biotin-B7.2-hFc
# Protocol: (§1) CTLA-4 extracellular domain protein (CTLA-4-hFc) was diluted with PBS to a final concentration of 1.0 μg/mL, and then added to a 96-well ELISA plate as 100 μl per well. The plate was covered with a plastic film and incubated overnight at 4° C. The plate was washed twice with plate washing solution [PBS containing 0.01% (v/v) Tween 20] on the next day, and added with blocking solution [PBS containing 0.01% (v/v) Tween 20 and 1% (w/w) BSA] and blocked at room temperature for 2 hours. […] After 2 hours, the plate was washed 3 times with a plate washing solution [PBS containing 0.01% (v/v) Tween 20]. HRP (horseradish peroxidase) labeled avidin diluent (purchased from Sigma) was added 100 microliters per well, and after the plate was incubated for 2 hours at 37° C., it was washed with plate washing solution [PBS containing 0.01% (v/v) Tween 20] for 3 times. […] TMB substrate was added to each well. After incubated at room temperature for 30 minutes, the plate was added with […] stop solution (1.0N HCl) to each well. An ELISA plate reader (SpectraMax 384plus, Molecular Device) was used to read the A450 nm value.
Binder,Inhibition rate (%) at 0.00091 nM,Inhibition rate (%) at 0.091 nM,Inhibition rate (%) at 0.274 nM,Inhibition rate (%) at 0.823 nM,Inhibition rate (%) at 2.5 nM,Inhibition rate (%) at 7.4 nM,Inhibition rate (%) at 22.2 nM,Inhibition rate (%) at 66.7 nM
B1,0%,23%,60%,90%,92%,95%,94%,95%
B2,0%,-21%,6%,76%,91%,95%,94%,95%
B3,0%,-29%,2%,62%,78%,89%,91%,93%

# Target: T4, monkey CTLA-4, full length, on transfected HEK293 cells (monkey)
# T4 construct: whole, on cells; also called cCTLA-4; HEK293-cCTLA-4
# Assay: FACS, 293F-cCTLA-4 cells
# Source text: The pIRES plasmid with the monkey-derived CTLA-4 full-length gene was transfected into the HEK293 cell line to construct a HEK293 stable cell line containing monkey CTLA-4 (herein referred to as HEK293-cCTLA-4 stable cell line), wherein the database accession number of the monkey CTLA-4 nucleotide sequence is XM_005574014.1. The HEK293-hCTLA-4 stable cell line and HEK293-cCTLA-4 stable cell line were expanded in a T-75 cell culture flask to a 90% confluence. The medium was aspirated, and the cells were washed with HBSS buffer (Hanks Balanced Salt Solution, purchased from Invitrogen) twice, then treated with an enzyme-free cell dissociation fluid (Versene solution, purchased from Life technology) and the cells were collected. The cells were washed with HBSS buffer twice. After counted, the cells were diluted with HBSS buffer to 2×10⁶ cells per ml, added with 1% goat serum blocking solution, wherein the percentage was the mass percantage. Cells were incubated on ice for 30 minutes, then washed twice with HBSS buffer by centrifugation. The collected cells were suspended in the FACS buffer (HBSS containing 1% BSA, wherein the percentage was the mass percantage) to 2×10⁶ cells/ml, added as 100 microliters per well to a 96-well FACS reaction plate, added with 100 microliters per well of the purified CTLA-4 antibody sample to be tested, incubated on ice for 2 hours. The plate was washed twice with the FACS buffer by centrifugation, added with 100 microliters of fluorescent (Alexa 488)-labeled secondary antibodies (purchased from Invitrogen) per well, and incubated on ice for 1 hour. The plate was washed 3 times with FACS buffer by centrifugation, added with 100 μl fixative solution [4% (v/v) Paraformaldehyde] per well to suspend the cells. 10 minutes later, it was washed 2 times with FACS buffer by centrifugation. The cells were suspended with 100 microliters of FACS buffer, FACS (FACS Calibur, purchased from BD) was used for detection and the results were analyzed.
Binder,MFI at 0.000128 nM,MFI at 0.0128 nM,MFI at 0.064 nM,MFI at 0.32 nM,MFI at 1.6 nM,MFI at 8 nM,MFI at 40 nM,MFI at 200 nM
B1,2.3,22.2,67.7,208,465,722,800,711
B2,2.4,23.1,67.2,225,513,754,910,831
B3,2.3,35.7,96.8,270,504,757,810,784

# Target: T1, CTLA-4-hFc (immunogen A; hFc-labeled …)
# Assay: ELISA, coated CTLA-4-hFc, competitor biotin-B7.1-hFc
# Protocol: as §1
Binder,Inhibition rate (%) at 0.00091 nM,Inhibition rate (%) at 0.091 nM,Inhibition rate (%) at 0.274 nM,Inhibition rate (%) at 0.823 nM,Inhibition rate (%) at 2.5 nM,Inhibition rate (%) at 7.4 nM,Inhibition rate (%) at 22.2 nM,Inhibition rate (%) at 66.7 nM
B1,0%,8%,55%,93%,94%,97%,96%,97%
B2,0%,-1%,4%,78%,93%,91%,91%,97%
B3,0%,-2%,4%,75%,87%,89%,89%,96%

# Target: T1, CTLA-4-hFc (immunogen A; hFc-labeled …)
# Assay: competition ELISA: CTLA-4-hFc coated, antibody titrated, blocked ligand biotin-labeled B7.2-hFc, HRP-avidin, A450, inhibition (%)
# Protocol: as §1
row,Binder,IC50 (read off the curve)
1,B1,~0.2 nM
2,B2,~0.5 nM
3,B3,~0.6 nM

# Target: T1, CTLA-4-hFc (immunogen A; hFc-labeled …)
# Assay: competition ELISA: CTLA-4-hFc coated, antibody titrated, blocked ligand biotin-labeled B7.1-hFc, HRP-avidin, A450, inhibition (%)
# Protocol: as §1
row,Binder,IC50 (read off the curve)
1,B1,~0.2 nM
2,B2,~0.5 nM
3,B3,~0.5 nM

# Target: T2, human CTLA-4 (Y201V), full length, on …
# Assay: FACS, CHOK1-hCTLA-4 cells
Binder,MFI at 0.07 nM,MFI at 0.67 nM,MFI at 6.67 nM,MFI at 66.67 nM
B1,29,154,420,603
B2,20,116,395,617
B3,22,125,347,606

# Target: T3, CTLA-4 on human T lymphocytes (PBMC, …)
# Assay: cell-based or functional assay
Binder,"IL-2 (pg/mL) at 0.016 ug/mL, SEB PBMC test","IL-2 (pg/mL) at 0.08 ug/mL, SEB PBMC test","IL-2 (pg/mL) at 2 ug/mL, SEB PBMC test","IL-2 (pg/mL) at 4 ug/mL (so in the source), SEB PBMC test","IL-2 (pg/mL) at 10 ug/mL, SEB PBMC test"
B1,355 pg/mL,830 pg/mL,3740 pg/mL,1420 pg/mL,6120 pg/mL
B2,336 pg/mL,742 pg/mL,4950 pg/mL,1520 pg/mL,7980 pg/mL
B3,446 pg/mL,824 pg/mL,4450 pg/mL,1950 pg/mL,7910 pg/mL

# Reference: US20210324080A1 (JIANGSU HUAIYU PHARMACEUTICAL, published 2021)
